Measurements reported in patent publication US20200024322A1 (Eli Lilly, published 2020).
Numbered stars: 1 amine (or outer) side, 2 acyl side, 3 side chain; on linkers, the order of the positions; unused ones are H or OH. Square brackets hold non-standard residues; d marks the D form. Side chains are listed from the residue outwards. Ends that are not written are not given here. * marks the point of attachment. C20 diacid = O=C(O)CCCCCCCCCCCCCCCCCCC(=O)*; γGlu = O=C(O)[C@H](CCC(=O)[*:2])N[*:1]; AEEA = NCCOCCOCC(=O)O; Aib = CC(C)(N)C(=O)O

Experiments:
human GIP receptor = target: T1, human GIP receptor (human, UniProt P48546 22-466); assay: SPA, [125I]-GIP displacement, hGIPR membranes
T1 construct: whole, on cells; Used as crude membranes of stably transfected CHO cells; also called hGIPR
T1 sequence (looked up): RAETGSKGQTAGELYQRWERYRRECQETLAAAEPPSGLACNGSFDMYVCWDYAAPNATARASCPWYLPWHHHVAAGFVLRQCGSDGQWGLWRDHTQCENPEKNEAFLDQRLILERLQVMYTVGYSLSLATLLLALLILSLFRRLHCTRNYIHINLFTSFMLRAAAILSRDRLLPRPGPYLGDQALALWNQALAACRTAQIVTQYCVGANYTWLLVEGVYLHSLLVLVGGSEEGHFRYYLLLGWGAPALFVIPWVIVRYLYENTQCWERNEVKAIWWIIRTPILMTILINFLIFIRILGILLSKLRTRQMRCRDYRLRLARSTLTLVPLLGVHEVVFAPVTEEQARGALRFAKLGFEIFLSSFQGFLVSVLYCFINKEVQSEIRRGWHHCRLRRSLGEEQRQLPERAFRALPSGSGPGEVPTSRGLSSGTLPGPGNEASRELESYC

human GLP-1 receptor = target: T2, human GLP-1 receptor (human, UniProt P43220 24-463); assay: SPA, [125I]-GLP-1 displacement, hGLP-1R membranes
T2 construct: whole, on cells; Used as crude membranes of stably transfected HEK293 cells; also called hGLP1R; hGLP-1R

human glucagon receptor = target: T3, human glucagon receptor (human, UniProt P47871 26-477); assay: SPA, [125I]-Gcg displacement, hGcgR membranes
T3 construct: whole, on cells; Used as crude membranes of stably transfected HEK293 cells; also called hGcgR; hGLcgR
T3 sequence (P47871 26-477): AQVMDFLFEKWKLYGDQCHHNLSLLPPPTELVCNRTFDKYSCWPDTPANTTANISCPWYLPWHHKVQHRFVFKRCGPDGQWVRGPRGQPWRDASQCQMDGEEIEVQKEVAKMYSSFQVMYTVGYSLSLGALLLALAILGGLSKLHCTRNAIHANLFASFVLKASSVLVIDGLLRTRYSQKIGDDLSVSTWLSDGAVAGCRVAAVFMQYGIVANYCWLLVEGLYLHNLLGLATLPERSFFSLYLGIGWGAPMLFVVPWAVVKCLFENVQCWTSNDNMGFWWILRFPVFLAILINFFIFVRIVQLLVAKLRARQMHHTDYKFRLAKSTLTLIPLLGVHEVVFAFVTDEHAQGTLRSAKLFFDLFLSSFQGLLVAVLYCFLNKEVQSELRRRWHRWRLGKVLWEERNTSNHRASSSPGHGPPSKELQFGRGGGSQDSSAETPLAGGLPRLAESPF

B1: Example 43 (peptide)
peptide: Y[Aib]EGTFTSDYSILLDKIAQ[Aib]AFIEYLIEGGPSSK([AEEA-AEEA-γGlu-C20 diacid])APPPS-NH2
modifications: N-terminus assumed
SMILES: CC[C@H](C)[C@H](NC(=O)[C@H](CCCCN)NC(=O)[C@H](CC(=O)O)NC(=O)[C@H](CC(C)C)NC(=O)[C@H](CC(C)C)NC(=O)[C@@H](NC(=O)[C@H](CO)NC(=O)[C@H](Cc1ccc(O)cc1)NC(=O)[C@H](CC(=O)O)NC(=O)[C@H](CO)NC(=O)[C@@H](NC(=O)[C@H](Cc1ccccc1)NC(=O)[C@@H](NC(=O)CNC(=O)[C@H](CCC(=O)O)NC(=O)C(C)(C)NC(=O)[C@@H](N)Cc1ccc(O)cc1)[C@@H](C)O)[C@@H](C)O)[C@@H](C)CC)C(=O)N[C@@H](C)C(=O)N[C@@H](CCC(N)=O)C(=O)NC(C)(C)C(=O)N[C@@H](C)C(=O)N[C@@H](Cc1ccccc1)C(=O)N[C@H](C(=O)N[C@@H](CCC(=O)O)C(=O)N[C@@H](Cc1ccc(O)cc1)C(=O)N[C@@H](CC(C)C)C(=O)N[C@H](C(=O)N[C@@H](CCC(=O)O)C(=O)NCC(=O)NCC(=O)N1CCC[C@H]1C(=O)N[C@@H](CO)C(=O)N[C@@H](CO)C(=O)N[C@@H](CCCCNC(=O)COCCOCCNC(=O)COCCOCCNC(=O)CC[C@H](NC(=O)CCCCCCCCCCCCCCCCCCC(=O)O)C(=O)O)C(=O)N[C@@H](C)C(=O)N1CCC[C@H]1C(=O)N1CCC[C@H]1C(=O)N1CCC[C@H]1C(=O)N[C@@H](CO)C(N)=O)[C@@H](C)CC)[C@@H](C)CC
Ki (human GIP receptor): 0.101 nM
Ki (human GLP-1 receptor): 11.8 nM
Ki (human glucagon receptor): 134 nM

B2: Example 44 (peptide)
peptide: Y[Aib]EGTFTSDYSILLDKIAQ[Aib]AFIEYLIEGGPSSGK([AEEA-AEEA-γGlu-C20 diacid])PPPS-NH2
modifications: N-terminus assumed
SMILES: CC[C@H](C)[C@H](NC(=O)[C@H](CCCCN)NC(=O)[C@H](CC(=O)O)NC(=O)[C@H](CC(C)C)NC(=O)[C@H](CC(C)C)NC(=O)[C@@H](NC(=O)[C@H](CO)NC(=O)[C@H](Cc1ccc(O)cc1)NC(=O)[C@H](CC(=O)O)NC(=O)[C@H](CO)NC(=O)[C@@H](NC(=O)[C@H](Cc1ccccc1)NC(=O)[C@@H](NC(=O)CNC(=O)[C@H](CCC(=O)O)NC(=O)C(C)(C)NC(=O)[C@@H](N)Cc1ccc(O)cc1)[C@@H](C)O)[C@@H](C)O)[C@@H](C)CC)C(=O)N[C@@H](C)C(=O)N[C@@H](CCC(N)=O)C(=O)NC(C)(C)C(=O)N[C@@H](C)C(=O)N[C@@H](Cc1ccccc1)C(=O)N[C@H](C(=O)N[C@@H](CCC(=O)O)C(=O)N[C@@H](Cc1ccc(O)cc1)C(=O)N[C@@H](CC(C)C)C(=O)N[C@H](C(=O)N[C@@H](CCC(=O)O)C(=O)NCC(=O)NCC(=O)N1CCC[C@H]1C(=O)N[C@@H](CO)C(=O)N[C@@H](CO)C(=O)NCC(=O)N[C@@H](CCCCNC(=O)COCCOCCNC(=O)COCCOCCNC(=O)CC[C@H](NC(=O)CCCCCCCCCCCCCCCCCCC(=O)O)C(=O)O)C(=O)N1CCC[C@H]1C(=O)N1CCC[C@H]1C(=O)N1CCC[C@H]1C(=O)N[C@@H](CO)C(N)=O)[C@@H](C)CC)[C@@H](C)CC
Ki (human GIP receptor): 0.0516 nM
Ki (human GLP-1 receptor): 10.6 nM
Ki (human glucagon receptor): 121 nM

B3: Example 58 (peptide)
peptide: Y[Aib]EGTFTSDYSSLLDKK([AEEA-AEEA-γGlu-C20 diacid])AQ[Aib]AFIEYLIEGGPSSGAPPPS-NH2
modifications: N-terminus assumed
SMILES: CC[C@H](C)[C@H](NC(=O)[C@H](CC(C)C)NC(=O)[C@H](Cc1ccc(O)cc1)NC(=O)[C@H](CCC(=O)O)NC(=O)[C@@H](NC(=O)[C@H](Cc1ccccc1)NC(=O)[C@H](C)NC(=O)C(C)(C)NC(=O)[C@H](CCC(N)=O)NC(=O)[C@H](C)NC(=O)[C@H](CCCCNC(=O)COCCOCCNC(=O)COCCOCCNC(=O)CC[C@H](NC(=O)CCCCCCCCCCCCCCCCCCC(=O)O)C(=O)O)NC(=O)[C@H](CCCCN)NC(=O)[C@H](CC(=O)O)NC(=O)[C@H](CC(C)C)NC(=O)[C@H](CC(C)C)NC(=O)[C@H](CO)NC(=O)[C@H](CO)NC(=O)[C@H](Cc1ccc(O)cc1)NC(=O)[C@H](CC(=O)O)NC(=O)[C@H](CO)NC(=O)[C@@H](NC(=O)[C@H](Cc1ccccc1)NC(=O)[C@@H](NC(=O)CNC(=O)[C@H](CCC(=O)O)NC(=O)C(C)(C)NC(=O)[C@@H](N)Cc1ccc(O)cc1)[C@@H](C)O)[C@@H](C)O)[C@@H](C)CC)C(=O)N[C@@H](CCC(=O)O)C(=O)NCC(=O)NCC(=O)N1CCC[C@H]1C(=O)N[C@@H](CO)C(=O)N[C@@H](CO)C(=O)NCC(=O)N[C@@H](C)C(=O)N1CCC[C@H]1C(=O)N1CCC[C@H]1C(=O)N1CCC[C@H]1C(=O)N[C@@H](CO)C(N)=O
Ki (human GIP receptor): 0.105 nM
Ki (human GLP-1 receptor): 2.77 nM
Ki (human glucagon receptor): 339 nM

B4: Example 48 (peptide)
peptide: Y[Aib]EGTFTSDYSILLDKIAQ[Aib]AFIEYLIEGGPSSGAPPPK([AEEA-AEEA-γGlu-C20 diacid])-NH2
modifications: N-terminus assumed
SMILES: CC[C@H](C)[C@H](NC(=O)[C@H](CCCCN)NC(=O)[C@H](CC(=O)O)NC(=O)[C@H](CC(C)C)NC(=O)[C@H](CC(C)C)NC(=O)[C@@H](NC(=O)[C@H](CO)NC(=O)[C@H](Cc1ccc(O)cc1)NC(=O)[C@H](CC(=O)O)NC(=O)[C@H](CO)NC(=O)[C@@H](NC(=O)[C@H](Cc1ccccc1)NC(=O)[C@@H](NC(=O)CNC(=O)[C@H](CCC(=O)O)NC(=O)C(C)(C)NC(=O)[C@@H](N)Cc1ccc(O)cc1)[C@@H](C)O)[C@@H](C)O)[C@@H](C)CC)C(=O)N[C@@H](C)C(=O)N[C@@H](CCC(N)=O)C(=O)NC(C)(C)C(=O)N[C@@H](C)C(=O)N[C@@H](Cc1ccccc1)C(=O)N[C@H](C(=O)N[C@@H](CCC(=O)O)C(=O)N[C@@H](Cc1ccc(O)cc1)C(=O)N[C@@H](CC(C)C)C(=O)N[C@H](C(=O)N[C@@H](CCC(=O)O)C(=O)NCC(=O)NCC(=O)N1CCC[C@H]1C(=O)N[C@@H](CO)C(=O)N[C@@H](CO)C(=O)NCC(=O)N[C@@H](C)C(=O)N1CCC[C@H]1C(=O)N1CCC[C@H]1C(=O)N1CCC[C@H]1C(=O)N[C@@H](CCCCNC(=O)COCCOCCNC(=O)COCCOCCNC(=O)CC[C@H](NC(=O)CCCCCCCCCCCCCCCCCCC(=O)O)C(=O)O)C(N)=O)[C@@H](C)CC)[C@@H](C)CC
Ki (human GIP receptor): 0.074 nM
Ki (human GLP-1 receptor): 15.7 nM
Ki (human glucagon receptor): 111 nM

B5: Example 45 (peptide)
peptide: Y[Aib]EGTFTSDYSILLDKIAQ[Aib]AFIEYLIEGGPSSGAK([AEEA-AEEA-γGlu-C20 diacid])PPS-NH2
modifications: N-terminus assumed
SMILES: CC[C@H](C)[C@H](NC(=O)[C@H](CCCCN)NC(=O)[C@H](CC(=O)O)NC(=O)[C@H](CC(C)C)NC(=O)[C@H](CC(C)C)NC(=O)[C@@H](NC(=O)[C@H](CO)NC(=O)[C@H](Cc1ccc(O)cc1)NC(=O)[C@H](CC(=O)O)NC(=O)[C@H](CO)NC(=O)[C@@H](NC(=O)[C@H](Cc1ccccc1)NC(=O)[C@@H](NC(=O)CNC(=O)[C@H](CCC(=O)O)NC(=O)C(C)(C)NC(=O)[C@@H](N)Cc1ccc(O)cc1)[C@@H](C)O)[C@@H](C)O)[C@@H](C)CC)C(=O)N[C@@H](C)C(=O)N[C@@H](CCC(N)=O)C(=O)NC(C)(C)C(=O)N[C@@H](C)C(=O)N[C@@H](Cc1ccccc1)C(=O)N[C@H](C(=O)N[C@@H](CCC(=O)O)C(=O)N[C@@H](Cc1ccc(O)cc1)C(=O)N[C@@H](CC(C)C)C(=O)N[C@H](C(=O)N[C@@H](CCC(=O)O)C(=O)NCC(=O)NCC(=O)N1CCC[C@H]1C(=O)N[C@@H](CO)C(=O)N[C@@H](CO)C(=O)NCC(=O)N[C@@H](C)C(=O)N[C@@H](CCCCNC(=O)COCCOCCNC(=O)COCCOCCNC(=O)CC[C@H](NC(=O)CCCCCCCCCCCCCCCCCCC(=O)O)C(=O)O)C(=O)N1CCC[C@H]1C(=O)N1CCC[C@H]1C(=O)N[C@@H](CO)C(N)=O)[C@@H](C)CC)[C@@H](C)CC
Ki (human GIP receptor): 0.0463 nM
Ki (human GLP-1 receptor): 5.65 nM
Ki (human glucagon receptor): 11.1 nM

B6: Example 46 (peptide)
peptide: Y[Aib]EGTFTSDYSILLDKIAQ[Aib]AFIEYLIEGGPSSGAPK([AEEA-AEEA-γGlu-C20 diacid])PS-NH2
modifications: N-terminus assumed
SMILES: CC[C@H](C)[C@H](NC(=O)[C@H](CCCCN)NC(=O)[C@H](CC(=O)O)NC(=O)[C@H](CC(C)C)NC(=O)[C@H](CC(C)C)NC(=O)[C@@H](NC(=O)[C@H](CO)NC(=O)[C@H](Cc1ccc(O)cc1)NC(=O)[C@H](CC(=O)O)NC(=O)[C@H](CO)NC(=O)[C@@H](NC(=O)[C@H](Cc1ccccc1)NC(=O)[C@@H](NC(=O)CNC(=O)[C@H](CCC(=O)O)NC(=O)C(C)(C)NC(=O)[C@@H](N)Cc1ccc(O)cc1)[C@@H](C)O)[C@@H](C)O)[C@@H](C)CC)C(=O)N[C@@H](C)C(=O)N[C@@H](CCC(N)=O)C(=O)NC(C)(C)C(=O)N[C@@H](C)C(=O)N[C@@H](Cc1ccccc1)C(=O)N[C@H](C(=O)N[C@@H](CCC(=O)O)C(=O)N[C@@H](Cc1ccc(O)cc1)C(=O)N[C@@H](CC(C)C)C(=O)N[C@H](C(=O)N[C@@H](CCC(=O)O)C(=O)NCC(=O)NCC(=O)N1CCC[C@H]1C(=O)N[C@@H](CO)C(=O)N[C@@H](CO)C(=O)NCC(=O)N[C@@H](C)C(=O)N1CCC[C@H]1C(=O)N[C@@H](CCCCNC(=O)COCCOCCNC(=O)COCCOCCNC(=O)CC[C@H](NC(=O)CCCCCCCCCCCCCCCCCCC(=O)O)C(=O)O)C(=O)N1CCC[C@H]1C(=O)N[C@@H](CO)C(N)=O)[C@@H](C)CC)[C@@H](C)CC
Ki (human GIP receptor): 0.0852 nM
Ki (human GLP-1 receptor): 13.4 nM
Ki (human glucagon receptor): 133 nM
